Assay results taken from patent publication US20220024981A1 (Novartis, published 2022).
Bridge positions count the residues as written; N and C are the ends. Square brackets hold non-standard residues; d marks the D form. Phe(3,4-Cl2) = N[C@@H](Cc1ccc(Cl)c(Cl)c1)C(=O)O; Phe(4-CF3) = N[C@@H](Cc1ccc(C(F)(F)F)cc1)C(=O)O; Bip = N[C@@H](Cc1ccc(-c2ccccc2)cc1)C(=O)O; Phe(3-F) = N[C@@H](Cc1cccc(F)c1)C(=O)O; NMeF = CN[C@@H](Cc1ccccc1)C(=O)O; NMeE = CN[C@@H](CCC(=O)O)C(=O)O; NMeA = CN[C@@H](C)C(=O)O

These binders were tested against T1, Human PCSK9 Alexa Fluor 647 (human, UniProt Q8NBP7 31-692, limits assumed, Alexa Fluor 647 label (site not stated)) (assay: TR-FRET competition: PCSK9-Alexa Fluor 647 vs LDLR ECD-Eu kryptate).
T1 construct: Labelled tracer of the TR-FRET assay, 16 nM stock; also called proprotein convertase subtilisin/kexin type 9
Description: A Proxi plate-low volume assay plate was used for the assay. […] Following a 30 minute incubation, 5 uL of 4 nM Human LDLR extracellular domain-Europium Kryptate was added and the mixture was incubated for an additional 2 hours.
The TR-FRET signal was measured on an EnVision or PheraStar instrument with a 60 μs delay, 330 nm excitation and 665 nm emission (FRET), and 330 nm excitation and 615 nm (Europium). The FRET ratio (FRET/Europium) was used for calculations.

T1 sequence (Q8NBP7 31-692 limits assumed): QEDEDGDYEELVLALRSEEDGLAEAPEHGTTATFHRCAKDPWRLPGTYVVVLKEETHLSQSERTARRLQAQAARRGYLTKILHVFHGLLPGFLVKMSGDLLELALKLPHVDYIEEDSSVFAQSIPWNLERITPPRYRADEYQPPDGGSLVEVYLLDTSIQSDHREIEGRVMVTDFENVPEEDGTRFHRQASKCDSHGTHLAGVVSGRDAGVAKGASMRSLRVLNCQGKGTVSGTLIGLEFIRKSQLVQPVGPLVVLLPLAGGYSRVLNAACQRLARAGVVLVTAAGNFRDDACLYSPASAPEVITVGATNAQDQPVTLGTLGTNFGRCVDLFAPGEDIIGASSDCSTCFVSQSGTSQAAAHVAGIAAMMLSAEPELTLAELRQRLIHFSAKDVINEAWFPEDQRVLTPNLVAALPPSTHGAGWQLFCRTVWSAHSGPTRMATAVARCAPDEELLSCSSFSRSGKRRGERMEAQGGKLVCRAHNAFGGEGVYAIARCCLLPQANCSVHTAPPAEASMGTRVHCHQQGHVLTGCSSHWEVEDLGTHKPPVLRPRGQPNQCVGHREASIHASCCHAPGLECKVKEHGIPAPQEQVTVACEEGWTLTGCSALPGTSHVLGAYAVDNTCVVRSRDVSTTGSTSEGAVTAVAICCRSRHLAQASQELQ

IC50 [nM]	Maximum % inhibition [%]	Binder
35	95	{CH2CO}-FVDTTS[NMeF][Bip][NMeA]ESPCG-NH2 (thioether N-13; SMILES CC(C)[C@@H]1NC(=O)[C@H](Cc2ccccc2)NC(=O)CSC[C@@H](C(=O)NCC(N)=O)NC(=O)[C@@H]2CCCN2C(=O)[C@H](CO)NC(=O)[C@H](CCC(=O)O)NC(=O)[C@H](C)N(C)C(=O)[C@H](Cc2ccc(-c3ccccc3)cc2)NC(=O)[C@H](Cc2ccccc2)N(C)C(=O)[C@H](CO)NC(=O)[C@H]([C@@H](C)O)NC(=O)[C@H]([C@@H](C)O)NC(=O)[C@H](CC(=O)O)NC1=O, also called 1-5; Ex. No. 1-5) [Ac*-F-V-D-T-T-S-(N-Me)F-B-(N-Me)A-E-S-P-C*-G-NH2]
2.6	65	{CH2CO}-FVDTTS[NMeF][Bip][NMeE]NSPCG-NH2 (thioether N-13; SMILES CC(C)[C@@H]1NC(=O)[C@H](Cc2ccccc2)NC(=O)CSC[C@@H](C(=O)NCC(N)=O)NC(=O)[C@@H]2CCCN2C(=O)[C@H](CO)NC(=O)[C@H](CC(N)=O)NC(=O)[C@H](CCC(=O)O)N(C)C(=O)[C@H](Cc2ccc(-c3ccccc3)cc2)NC(=O)[C@H](Cc2ccccc2)N(C)C(=O)[C@H](CO)NC(=O)[C@H]([C@@H](C)O)NC(=O)[C@H]([C@@H](C)O)NC(=O)[C@H](CC(=O)O)NC1=O, also called 1-1; Ex. No. 1-1) [Ac*-F-V-D-T-T-S-(N-Me)F-B-(N-Me)E-N-S-P-C*-G-NH2]
14	87	FVSTTSFXAESPCG (not fully specified; N-terminal acetyl (Ac*) joined by a sulfide bond to the side chain of Cys13 (cyclic); 7: L-(N-Me)Phe; 8: L-Bip; 9: L-(N-Me)Ala; C-terminal amide (NH2), also called 1-12; Ex. No. 1-12) [Ac*-F-V-S-T-T-S-(N-Me)F-B-(N-Me)A-E-S-P-C*-G-NH2]
2.1	55	{CH2CO}-FVDTTS[NMeF][Bip][NMeA]NSPCG-NH2 (thioether N-13; SMILES CC(C)[C@@H]1NC(=O)[C@H](Cc2ccccc2)NC(=O)CSC[C@@H](C(=O)NCC(N)=O)NC(=O)[C@@H]2CCCN2C(=O)[C@H](CO)NC(=O)[C@H](CC(N)=O)NC(=O)[C@H](C)N(C)C(=O)[C@H](Cc2ccc(-c3ccccc3)cc2)NC(=O)[C@H](Cc2ccccc2)N(C)C(=O)[C@H](CO)NC(=O)[C@H]([C@@H](C)O)NC(=O)[C@H]([C@@H](C)O)NC(=O)[C@H](CC(=O)O)NC1=O, also called 1-3; Ex. No. 1-3) [Ac*-F-V-D-T-T-S-(N-Me)F-B-(N-Me)A-N-S-P-C*-G-NH2]
410	60	{CH2CO}-FVDTTS[NMeA][Bip][NMeA]KSPCG-NH2 (thioether N-13; SMILES CC(C)[C@@H]1NC(=O)[C@H](Cc2ccccc2)NC(=O)CSC[C@@H](C(=O)NCC(N)=O)NC(=O)[C@@H]2CCCN2C(=O)[C@H](CO)NC(=O)[C@H](CCCCN)NC(=O)[C@H](C)N(C)C(=O)[C@H](Cc2ccc(-c3ccccc3)cc2)NC(=O)[C@H](C)N(C)C(=O)[C@H](CO)NC(=O)[C@H]([C@@H](C)O)NC(=O)[C@H]([C@@H](C)O)NC(=O)[C@H](CC(=O)O)NC1=O, also called 1-7; Ex. No. 1-7) [Ac*-F-V-D-T-T-S-(N-Me)A-B-(N-Me)A-K-S-P-C*-G-NH2]
4	60	{CH2CO}-FVDSTY[NMeA][Bip][NMeA]NHPCG-NH2 (thioether N-13; SMILES CC(C)[C@@H]1NC(=O)[C@H](Cc2ccccc2)NC(=O)CSC[C@@H](C(=O)NCC(N)=O)NC(=O)[C@@H]2CCCN2C(=O)[C@H](Cc2c[nH]cn2)NC(=O)[C@H](CC(N)=O)NC(=O)[C@H](C)N(C)C(=O)[C@H](Cc2ccc(-c3ccccc3)cc2)NC(=O)[C@H](C)N(C)C(=O)[C@H](Cc2ccc(O)cc2)NC(=O)[C@H]([C@@H](C)O)NC(=O)[C@H](CO)NC(=O)[C@H](CC(=O)O)NC1=O, also called 1-4; Ex. No. 1-4) [Ac*-F-V-D-S-T-Y-(N-Me)A-B-(N-Me)A-N-H-P-C*-G-NH2]
12	97	{CH2CO}-FVDTTS[NMeF][Phe(4-CF3)][NMeA]ESPCG-NH2 (thioether N-13; SMILES CC(C)[C@@H]1NC(=O)[C@H](Cc2ccccc2)NC(=O)CSC[C@@H](C(=O)NCC(N)=O)NC(=O)[C@@H]2CCCN2C(=O)[C@H](CO)NC(=O)[C@H](CCC(=O)O)NC(=O)[C@H](C)N(C)C(=O)[C@H](Cc2ccc(C(F)(F)F)cc2)NC(=O)[C@H](Cc2ccccc2)N(C)C(=O)[C@H](CO)NC(=O)[C@H]([C@@H](C)O)NC(=O)[C@H]([C@@H](C)O)NC(=O)[C@H](CC(=O)O)NC1=O, also called 1-6; Ex. No. 1-6) [Ac*-F-V-D-T-T-S-(N-Me)F-(p-CF3)F-(N-Me)A-E-S-P-C*-G-NH2]
2.3	58	FVSTTXAXADSPCG (not fully specified; N-terminal acetyl (Ac*) joined by a sulfide bond to the side chain of Cys13 (cyclic); 6: L-Bip; 7: L-(N-Me)Ala; 8: L-Bip; 9: L-(N-Me)Ala; C-terminal amide (NH2), also called 1-8; Ex. No. 1-8) [Ac*-F-V-S-T-T-B-(N-Me)A-B-(N-Me)A-D-S-P-C*-G-NH2]
1.3		{CH2CO}-FVSTT[Bip][NMeA][Bip][NMeA]DRPCG-NH2 (thioether N-13, also called 1-2; Ex. No. 1-2) [Ac*-F-V-S-T-T-B-(N-Me)A-B-(N-Me)A-D-R-P-C*-G-NH2]
8.1	35	FVSTTXAXAPSPCG (not fully specified; N-terminal acetyl (Ac*) joined by a sulfide bond to the side chain of Cys13 (cyclic); 6: L-Bip; 7: L-(N-Me)Ala; 8: L-Bip; 9: L-(N-Me)Ala; C-terminal amide (NH2), also called 1-20; Ex. No. 1-20) [Ac*-F-V-S-T-T-B-(N-Me)A-B-(N-Me)A-P-S-P-C*-G-NH2]
3.6	55	{CH2CO}-FVSTT[Phe(4-CF3)][NMeA][Phe(4-CF3)][NMeA]ERPCG-NH2 (thioether N-13; SMILES CC(C)[C@@H]1NC(=O)[C@H](Cc2ccccc2)NC(=O)CSC[C@@H](C(=O)NCC(N)=O)NC(=O)[C@@H]2CCCN2C(=O)[C@H](CCCNC(=N)N)NC(=O)[C@H](CCC(=O)O)NC(=O)[C@H](C)N(C)C(=O)[C@H](Cc2ccc(C(F)(F)F)cc2)NC(=O)[C@H](C)N(C)C(=O)[C@H](Cc2ccc(C(F)(F)F)cc2)NC(=O)[C@H]([C@@H](C)O)NC(=O)[C@H]([C@@H](C)O)NC(=O)[C@H](CO)NC1=O, also called 1-11; Ex. No. 1-11) [Ac*-F-V-S-T-T-(p-CF3)F-(N-Me)A-(p-CF3)F-(N-Me)A-E-R-P-C*-G-NH2]
7.8	86	FVSTTXFXAESPCG (not fully specified; N-terminal acetyl (Ac*) joined by a sulfide bond to the side chain of Cys13 (cyclic); 6: L-Bip; 7: L-(N-Me)Phe; 8: L-Bip; 9: L-(N-Me)Ala; C-terminal amide (NH2), also called 1-13; Ex. No. 1-13) [Ac*-F-V-S-T-T-B-(N-Me)F-B-(N-Me)A-E-S-P-C*-G-NH2]
2.4	84	{CH2CO}-FVDTT[Bip][NMeA][Phe(3,4-Cl2)][NMeA]ESPCG-NH2 (thioether N-13; SMILES CC(C)[C@@H]1NC(=O)[C@H](Cc2ccccc2)NC(=O)CSC[C@@H](C(=O)NCC(N)=O)NC(=O)[C@@H]2CCCN2C(=O)[C@H](CO)NC(=O)[C@H](CCC(=O)O)NC(=O)[C@H](C)N(C)C(=O)[C@H](Cc2ccc(Cl)c(Cl)c2)NC(=O)[C@H](C)N(C)C(=O)[C@H](Cc2ccc(-c3ccccc3)cc2)NC(=O)[C@H]([C@@H](C)O)NC(=O)[C@H]([C@@H](C)O)NC(=O)[C@H](CC(=O)O)NC1=O, also called 1-26; Ex. No. 1-26) [Ac*-F-V-D-T-T-B-(N-Me)A-(3,4-diCl)F-(N-Me)A-E-S-P-C*-G-NH2]
6	90	{CH2CO}-FVDTT[Bip][NMeA][Bip][NMeA]ESPCG-NH2 (thioether N-13; SMILES CC(C)[C@@H]1NC(=O)[C@H](Cc2ccccc2)NC(=O)CSC[C@@H](C(=O)NCC(N)=O)NC(=O)[C@@H]2CCCN2C(=O)[C@H](CO)NC(=O)[C@H](CCC(=O)O)NC(=O)[C@H](C)N(C)C(=O)[C@H](Cc2ccc(-c3ccccc3)cc2)NC(=O)[C@H](C)N(C)C(=O)[C@H](Cc2ccc(-c3ccccc3)cc2)NC(=O)[C@H]([C@@H](C)O)NC(=O)[C@H]([C@@H](C)O)NC(=O)[C@H](CC(=O)O)NC1=O, also called 1-10; Ex. No. 1-10) [Ac*-F-V-D-T-T-B-(N-Me)A-B-(N-Me)A-E-S-P-C*-G-NH2]
2.5	68	FVSTTXAXAESPCG (not fully specified; N-terminal acetyl (Ac*) joined by a sulfide bond to the side chain of Cys13 (cyclic); 6: L-Bip; 7: L-(N-Me)Ala; 8: L-Bip; 9: L-(N-Me)Ala; C-terminal amide (NH2), also called 1-25; Ex. No. 1-25) [Ac*-F-V-S-T-T-B-(N-Me)A-B-(N-Me)A-E-S-P-C*-G-NH2]
2.7	38	{CH2CO}-FVPTT[Bip][NMeA][Bip][NMeA]DRPCG-NH2 (thioether N-13; SMILES CC(C)[C@@H]1NC(=O)[C@H](Cc2ccccc2)NC(=O)CSC[C@@H](C(=O)NCC(N)=O)NC(=O)[C@@H]2CCCN2C(=O)[C@H](CCCNC(=N)N)NC(=O)[C@H](CC(=O)O)NC(=O)[C@H](C)N(C)C(=O)[C@H](Cc2ccc(-c3ccccc3)cc2)NC(=O)[C@H](C)N(C)C(=O)[C@H](Cc2ccc(-c3ccccc3)cc2)NC(=O)[C@H]([C@@H](C)O)NC(=O)[C@H]([C@@H](C)O)NC(=O)[C@@H]2CCCN2C1=O, also called 1-19; Ex. No. 1-19) [Ac*-F-V-P-T-T-B-(N-Me)A-B-(N-Me)A-D-R-P-C*-G-NH2]
12	53	{CH2CO}-FVSTT[Bip][NMeA][Phe(3-F)][NMeA]DRPCG-NH2 (thioether N-13; SMILES CC(C)[C@@H]1NC(=O)[C@H](Cc2ccccc2)NC(=O)CSC[C@@H](C(=O)NCC(N)=O)NC(=O)[C@@H]2CCCN2C(=O)[C@H](CCCNC(=N)N)NC(=O)[C@H](CC(=O)O)NC(=O)[C@H](C)N(C)C(=O)[C@H](Cc2cccc(F)c2)NC(=O)[C@H](C)N(C)C(=O)[C@H](Cc2ccc(-c3ccccc3)cc2)NC(=O)[C@H]([C@@H](C)O)NC(=O)[C@H]([C@@H](C)O)NC(=O)[C@H](CO)NC1=O, also called 1-15; Ex. No. 1-15) [Ac*-F-V-S-T-T-B-(N-Me)A-(3-F)F-(N-Me)A-D-R-P-C*-G-NH2]
1.2	49	{CH2CO}-FVSTT[Bip][NMeA][Phe(3,4-Cl2)][NMeA]DRPCG-NH2 (thioether N-13; SMILES CC(C)[C@@H]1NC(=O)[C@H](Cc2ccccc2)NC(=O)CSC[C@@H](C(=O)NCC(N)=O)NC(=O)[C@@H]2CCCN2C(=O)[C@H](CCCNC(=N)N)NC(=O)[C@H](CC(=O)O)NC(=O)[C@H](C)N(C)C(=O)[C@H](Cc2ccc(Cl)c(Cl)c2)NC(=O)[C@H](C)N(C)C(=O)[C@H](Cc2ccc(-c3ccccc3)cc2)NC(=O)[C@H]([C@@H](C)O)NC(=O)[C@H]([C@@H](C)O)NC(=O)[C@H](CO)NC1=O, also called 1-14; Ex. No. 1-14) [Ac*-F-V-S-T-T-B-(N-Me)A-(3,4-diCl)F-(N-Me)A-D-R-P-C*-G-NH2]
3	35	FVSTTSFXADRPCG (not fully specified; N-terminal acetyl (Ac*) joined by a sulfide bond to the side chain of Cys13 (cyclic); 7: L-(N-Me)Phe; 8: L-Bip; 9: L-(N-Me)Ala; C-terminal amide (NH2), also called 1-9; Ex. No. 1-9) [Ac*-F-V-S-T-T-S-(N-Me)F-B-(N-Me)A-D-R-P-C*-G-NH2]
